Results: US8450280B2, “Activation of peptide prodrugs by hK2” (GenbSpera, Inc., priority 1999, dated 2013)
Non-standard residues stand in square brackets, D forms with d. No end group written: not given here.

Experiments:
[1] = Serum hydrolysis of hK2 substrates; type: in vitro ADME; settings: 50% fresh human serum in 50 mM Tris, 0.1 M NaCl, pH 7.8
Method: (§1) Hydrolyses of particular hK2 substrates were carried out at a hK2 concentrations of 1 μg/ml in 50 mM Tris buffer, with 0.1 M NaCl, at pH 7.8. Serum hydrolysis measurements were carried out in 50% fresh human serum in 50 mM Tris buffer, with 0.1 M NaCl, at pH 7.8. The single letter amino acid code was used to designate the peptide sequences used for Table 4. The units FU are arbitrary fluorescence units. The entries “U.D.” were for measurements of less than 0.01 FU/hour.

hK2 = biological target: T1, hK2 (Homo sapiens, UniProt P20151); assay: Hydrolysis of hK2 substrates by hK2; type: biochemical; settings: hK2 1 μg/ml, 50 mM Tris, 0.1 M NaCl, pH 7.8
T1 construct: made in house
T1 sequence (P20151 25-261): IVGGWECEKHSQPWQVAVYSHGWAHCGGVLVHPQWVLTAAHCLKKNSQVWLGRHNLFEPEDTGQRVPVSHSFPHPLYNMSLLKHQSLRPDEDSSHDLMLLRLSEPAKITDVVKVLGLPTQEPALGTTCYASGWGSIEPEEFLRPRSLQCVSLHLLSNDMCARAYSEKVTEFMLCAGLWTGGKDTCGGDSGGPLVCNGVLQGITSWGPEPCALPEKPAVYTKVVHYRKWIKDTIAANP
Method: as §1

Substance: SEQ ID NO: 92: hK2 substrate peptide, single letter sequence P7-P′1 (GSQNQVHL; listed as Homo sapiens)
- Serum Hydrolysis Rate ([1]; Table 4): 0.03 FU/hr
- hK2 Hydrolysis Rate (hK2; Table 4): 32.48 FU/hr/m

Substance: SEQ ID NO: 93: hK2 substrate peptide, single letter sequence P7-P′1 (GHAQKRRL; listed as Homo sapiens)
- Serum Hydrolysis Rate ([1]; Table 5): 0.08 FU/hr
- hK2 Hydrolysis Rate (hK2; Table 5): 3665.1 FU/hr/m

Substance: SEQ ID NO: 94: hK2 substrate peptide, single letter sequence P6-P′1 (GGKSRRL; listed as Homo sapiens)
- Serum Hydrolysis Rate ([1]; Table 5): 0.03 FU/hr
- hK2 Hydrolysis Rate (hK2; Table 5): 3439.7 FU/hr/m

Substance: SEQ ID NO: 95: hK2 substrate peptide, single letter sequence P7-P′1 (GHEAKRRL; listed as Homo sapiens)
- Serum Hydrolysis Rate ([1]; Table 5): UD (The entries “U.D.” were for measurements of less than 0.01 FU/hour)
- hK2 Hydrolysis Rate (hK2; Table 5): 3324.1 FU/hr/m

Substance: SEQ ID NO: 96: hK2 substrate peptide, single letter sequence P6-P′1 (GGQKRRL; listed as Homo sapiens)
- Serum Hydrolysis Rate ([1]; Table 5): 0.02 FU/hr
- hK2 Hydrolysis Rate (hK2; Table 5): 3267.4 FU/hr/m

Substance: SEQ ID NO: 97: hK2 substrate peptide, single letter sequence P7-P′1 (GHEQKRRA; listed as Homo sapiens)
- Serum Hydrolysis Rate ([1]; Table 5): 0.06 FU/hr
- hK2 Hydrolysis Rate (hK2; Table 5): 3051.5 FU/hr/m

Substance: SEQ ID NO: 98: hK2 substrate peptide, single letter sequence P6-P′1 (GGAKRRL; listed as Homo sapiens)
- Serum Hydrolysis Rate ([1]; Table 5): 0.02 FU/hr
- hK2 Hydrolysis Rate (hK2; Table 5): 2773.0 FU/hr/m

Substance: SEQ ID NO: 99: hK2 substrate peptide, single letter sequence P7-P′1 (GHEQKRRS; listed as Homo sapiens)
- Serum Hydrolysis Rate ([1]; Table 5): UD (The entries “U.D.” were for measurements of less than 0.01 FU/hour)
- hK2 Hydrolysis Rate (hK2; Table 5): 2638.5 FU/hr/m

Substance: SEQ ID NO: 100: hK2 substrate peptide, single letter sequence P6-P′1 (GGKKRRL; listed as Homo sapiens)
- Serum Hydrolysis Rate ([1]; Table 5): UD (The entries “U.D.” were for measurements of less than 0.01 FU/hour)
- hK2 Hydrolysis Rate (hK2; Table 5): 2583.0 FU/hr/m

Substance: SEQ ID NO: 101: hK2 substrate peptide, single letter sequence P6-P′1 (GGHKRRL; listed as Homo sapiens)
- Serum Hydrolysis Rate ([1]; Table 5): UD (The entries “U.D.” were for measurements of less than 0.01 FU/hour)
- hK2 Hydrolysis Rate (hK2; Table 5): 2428.4 FU/hr/m

Substance: SEQ ID NO: 102: hK2 substrate peptide, single letter sequence P6-P′1 (GGKAFRL; listed as Homo sapiens)
- Serum Hydrolysis Rate ([1]; Table 5): 0.07 FU/hr
- hK2 Hydrolysis Rate (hK2; Table 5): 2374.2 FU/hr/m

Substance: SEQ ID NO: 103: hK2 substrate peptide, single letter sequence P7-P′1 (GAEQKRRL; listed as Homo sapiens)
- Serum Hydrolysis Rate ([1]; Table 5): 0.10 FU/hr
- hK2 Hydrolysis Rate (hK2; Table 5): 2325.8 FU/hr/m

Substance: SEQ ID NO: 104: hK2 substrate peptide, single letter sequence P6-P′1 (GGKAQRL; listed as Homo sapiens)
- Serum Hydrolysis Rate ([1]; Table 5): 0.04 FU/hr
- hK2 Hydrolysis Rate (hK2; Table 5): 2233.7 FU/hr/m

Substance: SEQ ID NO: 105: hK2 substrate peptide, single letter sequence P6-P′1 (GGKARRL; listed as Homo sapiens)
- Serum Hydrolysis Rate ([1]; Table 5): UD (The entries “U.D.” were for measurements of less than 0.01 FU/hour)
- hK2 Hydrolysis Rate (hK2; Table 5): 2171.2 FU/hr/m

Substance: SEQ ID NO: 106: hK2 substrate peptide, single letter sequence P6-P′1 (GGKQRRL; listed as Homo sapiens)
- Serum Hydrolysis Rate ([1]; Table 5): 0.02 FU/hr
- hK2 Hydrolysis Rate (hK2; Table 5): 2171.2 FU/hr/m

Substance: SEQ ID NO: 107: hK2 substrate peptide, single letter sequence P6-P′1 (GGKHRRL; listed as Homo sapiens)
- Serum Hydrolysis Rate ([1]; Table 5): UD (The entries “U.D.” were for measurements of less than 0.01 FU/hour)
- hK2 Hydrolysis Rate (hK2; Table 5): 2079.2 FU/hr/m

Substance: SEQ ID NO: 108: hK2 substrate peptide, single letter sequence P7-P′1 (GHEQARRL; listed as Homo sapiens)
- Serum Hydrolysis Rate ([1]; Table 5): 0.14 FU/hr
- hK2 Hydrolysis Rate (hK2; Table 5): 1956.4 FU/hr/m

Substance: SEQ ID NO: 109: hK2 substrate peptide, single letter sequence P6-P′1 (GGKAKRL; listed as Homo sapiens)
- Serum Hydrolysis Rate ([1]; Table 5): 0.14 FU/hr
- hK2 Hydrolysis Rate (hK2; Table 5): 1788.9 FU/hr/m

Substance: SEQ ID NO: 110: hK2 substrate peptide, single letter sequence P7-P′1, dL at P′1 (GHEQKRR[dL]; listed as Homo sapiens)
- Serum Hydrolysis Rate ([1]; Table 5): 0.15 FU/hr
- hK2 Hydrolysis Rate (hK2; Table 5): 1690.9 FU/hr/m

Substance: SEQ ID NO: 111: hK2 substrate peptide, single letter sequence P6-P′1 (GGKARRS; listed as Homo sapiens)
- Serum Hydrolysis Rate ([1]; Table 5): UD (The entries “U.D.” were for measurements of less than 0.01 FU/hour)
- hK2 Hydrolysis Rate (hK2; Table 5): 1609.6 FU/hr/m

Substance: SEQ ID NO: 112: hK2 substrate peptide, single letter sequence P6-P′1 (GGKARKL; listed as Homo sapiens)
- Serum Hydrolysis Rate ([1]; Table 5): UD (The entries “U.D.” were for measurements of less than 0.01 FU/hour)
- hK2 Hydrolysis Rate (hK2; Table 5): 1602.4 FU/hr/m

Substance: SEQ ID NO: 113: hK2 substrate peptide, single letter sequence P7-P′1 (GHEQKRRE; listed as Homo sapiens)
- Serum Hydrolysis Rate ([1]; Table 5): UD (The entries “U.D.” were for measurements of less than 0.01 FU/hour)
- hK2 Hydrolysis Rate (hK2; Table 5): 1473.8 FU/hr/m

Substance: SEQ ID NO: 114: hK2 substrate peptide, single letter sequence P6-P′1 (GGKAHRL; listed as Homo sapiens)
- Serum Hydrolysis Rate ([1]; Table 5): 0.10 FU/hr
- hK2 Hydrolysis Rate (hK2; Table 5): 1287.4 FU/hr/m

Substance: SEQ ID NO: 115: hK2 substrate peptide, single letter sequence P6-P′1 (GGKANRL; listed as Homo sapiens)
- Serum Hydrolysis Rate ([1]; Table 5): 0.01 FU/hr
- hK2 Hydrolysis Rate (hK2; Table 5): 1113.9 FU/hr/m

Substance: SEQ ID NO: 116: hK2 substrate peptide, single letter sequence P6-P′1 (GGKARQL; listed as Homo sapiens)
- Serum Hydrolysis Rate ([1]; Table 5): 0.13 FU/hr
- hK2 Hydrolysis Rate (hK2; Table 5): 1021.9 FU/hr/m

Substance: SEQ ID NO: 117: hK2 substrate peptide, single letter sequence P6-P′1 (GGKARHL; listed as Homo sapiens)
- Serum Hydrolysis Rate ([1]; Table 5): UD (The entries “U.D.” were for measurements of less than 0.01 FU/hour)
- hK2 Hydrolysis Rate (hK2; Table 5): 939.3 FU/hr/m

Substance: SEQ ID NO: 118: hK2 substrate peptide, single letter sequence P6-P′1 (GGKARNL; listed as Homo sapiens)
- Serum Hydrolysis Rate ([1]; Table 5): 0.25 FU/hr
- hK2 Hydrolysis Rate (hK2; Table 5): 828.4 FU/hr/m

Substance: SEQ ID NO: 119: hK2 substrate peptide, single letter sequence P6-P′1, dR at P2 (GGKA[dR]RL; listed as Homo sapiens)
- Serum Hydrolysis Rate ([1]; Table 5): 0.06 FU/hr
- hK2 Hydrolysis Rate (hK2; Table 5): 494.4 FU/hr/m

Substance: SEQ ID NO: 120: hK2 substrate peptide, single letter sequence P6-P′1 (GGKAKKL; listed as Homo sapiens)
- Serum Hydrolysis Rate ([1]; Table 5): UD (The entries “U.D.” were for measurements of less than 0.01 FU/hour)
- hK2 Hydrolysis Rate (hK2; Table 5): 77.9 FU/hr/m

Substance: SEQ ID NO: 121: hK2 substrate peptide, single letter sequence P6-P′1 (GGKAHKL; listed as Homo sapiens)
- Serum Hydrolysis Rate ([1]; Table 5): UD (The entries “U.D.” were for measurements of less than 0.01 FU/hour)
- hK2 Hydrolysis Rate (hK2; Table 5): 73.2 FU/hr/m

Substance: SEQ ID NO: 123: hK2 substrate peptide, single letter sequence P6-P′1, dR at P2 and P1 (GGKA[dR][dR]L; listed as Homo sapiens)
- Serum Hydrolysis Rate ([1]; Table 5): UD (The entries “U.D.” were for measurements of less than 0.01 FU/hour)
- hK2 Hydrolysis Rate (hK2; Table 5): 16.5 FU/hr/m
